The values below are quoted from earlier work in US8618048B2, “Insulin analogues of prolonged activity” (Instytut Biotechnologii I Antybiotyków, priority 2008, dated 2013).

The conditions of this series: background statement.

With “unmodified natural insulin: unmodified natural insulin”, the isoelectric point is given as 5.4.
